# B1: trypsin (protein, UniProt P00760 24-246, looked up)
# Serine protease 1: IVGGYTCGANTVPYQVSLNSGYHFCGGSLINSQWVVSAAHCYKSGIQVRLGEDNINVVEGNEQFISASKSIVHPSYNSNTLNNDIMLIKLKSAASLNSRVASISLPTSCASAGTQCLISGWGNTKSSGTSYPDVLKCLKAPILSDSSCKSAYPGQITSNMFCAGYLEGGKDSCQGDSGGPVVCSGKLQGIVSWGSGCAQKNKPGVYTKVCNYVSWIKQTIASN
# notes: FRANCETIN⋅T⋅POWDER (2500 USP of crystalized trypsin per 10 mg), serine protease dental pretreatment material
# B2: GDNF: GDNF (Peproteck), positive control for neurite outgrowth (protein, UniProt P39905 78-211, looked up)
# Glial cell line-derived …: SPDKQMAVLPRRERNRQAAAANPENSRGKGRRGQRGKNRGCVLTAIHLNVTDLGLGYETKEELIFRYCSGSCDAAETTYDKILKNLSRNRRLVSDKVGQACCRPIAFDDDLSFLDDNLVYHILRKHSAKRCGCI
# Key:
# [1] = tested on: canine dental pulp stem cells; experiment: Induction of dental pulp and dentin by dental pulp stem cells attached to treated fine-grained dentin particles; assay type: cell-based; conditions: 7 days culture; for cell adhesion to treated dentin: fine-grained dentin treated for 10 minutes (0.05% trypsin; 1 mM EDTA; 0.05% chymotrypsin; 0.1 mg/mL MMP3), HE stain; for induction of the dental pulp stem cells into the dental pulp and dentin: fine-grained dentin treated for 10 minutes, vs untreated dentin
# Experimental: A tooth was extracted from a dog. The cementum and dental pulp of the tooth were removed mechanically. The tooth was then rinsed with tapping water for 3 hours, and then crushed into grains. Fine grains of dentin particles having a diameter of 500 μm to 1,000 μm (fine-grained dentin) were separated by use of a sieve. The fine-grained dentin particles was treated with a mixture liquid containing chloroform and methanol at room temperature for 6 hours, and then, with LiCl (8.0 M) at 4° C. for 24 hours. The fine-grained dentin was then inactivated in distilled water at 55° C. for 24 hours. Thereafter, the fine-grained dentin were divided into six groups: group (i) treated with 0.05% trypsin for 10 minutes; group (ii) treated with 0.05% trypsin and 1 mM EDTA for 10 minutes; a group (iii) treated with 1 mM of EDTA for 10 minutes; group (iv) treated with 0.05% chymotrypsin for 10 minutes; group (v) treated with 0.1 mg/mL MMP3 for 10 minutes; and group (vi) subjected to no treatment. Three fine grains of each of the groups were mixed with 2×10^5 canine dental pulp stem cells. Each mixture underwent centrifugation at 2,000 rpm for 5 minutes, followed by culture in Dulbecco's Modified Eagle's Medium containing 10% FBS at 37° C. for 7 days in the presence of 5% CO2. The culture was then fixed overnight with 4% paraformaldehyde. Paraffin sections were prepared according to a common method, and sliced into 5 μm thick ultrathin sections. The ultrathin sections underwent HE stain.
# [2] = tested on: pulpectomized root canal of middle or advanced aged dog; experiment: Dental pulp regeneration following pulpectomy by autologous transplantation of dental pulp stem cells after trypsin pretreatment of the root canal; assay type: in vivo
# Text: Under general anesthesia, anterior teeth of upper and lower jaws of middle or advanced aged dog and young aged dog were pulpectomized. For each tooth, the root canal was enlarged with #50-55 to the apex, and was irrigated alternately with a 5% sodium hypochlorite solution and a 3% hydrogen peroxide solution, followed by washing with physiologic saline. The root canal was completely dried with paper points, and hemorrhage was controlled. The root canal was completely closed with a temporary seal of cement and resin. After 7 to 14 days following the pulpectomy, the temporary seal was removed, and the root canal underwent the alternate washing, and then, washing with physiologic saline. Smear clean (3% EDTA) was then allowed to react for 2 minutes. The root canal was then further washed with physiologic saline, and dried. Thereafter, FRANCETIN⋅T⋅POWDER (2500 USP of crystalized trypsin per 10 mg) (MOCHIDA PHARMACEUTICAL CO., LTD.) at a concentration of 50 μg/ml (0.05%) or 500 μg/ml (0.5%) was allowed to react in the root canal for 10 minutes or 30 minutes. Washing with physiologic saline was then performed. As a control, a tooth on the opposite side was not treated. Further, FRANCETIN⋅T⋅POWDER was mixed with a nanobubble liquid into a 50 μg/ml (0.05%) solution. The solution was allowed to act in a similar manner for 10 minutes, followed by washing with physiologic saline. A root canal filler was prepared by suspending 1×10^6 autologous dental pulp stem cells, which had been membrane-isolated, in 40 μl of a scaffold (Koken Atelocollagen Implant, KOKEN CO., LTD.), and by suspending 3 μl of 100 μg/ml G-CSF (NEUTROGIN, Chugai Pharmaceutical Co., Ltd.). The root canal filler prepared was injected into each root canal such that no air bubbles were contained. The mobilized dental pulp stem cells were isolated using the membrane-isolation-type culture device described above. A hemostatic gelatin sponge (Spongel) was put on the root canal filler. The cavity was completely sealed with cement and resin. On day 14 following the transplantation, the teeth were extracted. According to a common method, 5 μm paraffin sections of longitudinal cross section were prepared. The paraffin sections were then H-E stained to undergo morphological observation. To analyze angiogenesis, the sections were immunostained with BS-1 lectin. Amounts of regenerated dental pulp of four sections were measured for each sample, and an average amount of four samples was determined as the amount of regenerated dental pulp of the sample.
# [3] = tested on: TGW cells (human neuroblastoma cell line); experiment: Neurite outgrowth in TGW cells with culture conditioned medium of senescent dental pulp stem cells; assay type: cell-based; conditions: positive control, 50 ng/μl; after 48 hours
# Experimental: Non-separated 22nd-passage human dental pulp stem cells were brought into a state of 50% confluence. The medium was replaced with a serum-free medium. After 24 hours, the culture conditioned medium was collected. The supernatant was concentrated approximately 40-fold using Amicon Ultra-15 Centrifugal Filter Unit with Ultracel-3 membrane (Millipore, Billerica, Mass.) with 3-kDa molecular cut. Proteinase inhibitors (Halt™ proteinase inhibitor cocktail EDTA-free, Thermo Scientific, Rockford, Ill., USA) was added. The mixture was dispended to be stored at −80° C. Protein content was measured using Bradford Ultra™ (Expedeon, Cambridge, UK).
# The culture supernatant (5 μg/ml proteins) prepared in 1 above was added to TGW cells (human neuroblastoma cell line). Further, an ALK5 inhibitor (SB431542, 10 ng/μl) was added to a part of the resultant mixture, and a CCR3 antagonist (SB328437, 5 ng/μl) was added to another part of the resultant mixture. TGW cells to which only the culture supernatant was added was used as a negative control. […] Neurite outgrowth after 48 hours was observed and measured with an inverted microscope (Leica).
# [4] = 50 μg/ml (0.05%), no dental pulp stem cells transplanted
molecule,measurement,setting,value
O=C(O)CN(CCN(CC(=O)O)CC(=O)O)CC(=O)O [EDTA],cell adhesion to treated dentin,[1],a less number of cells adhered
same,induction of the dental pulp stem cells into the dental pulp and dentin,[1],induction into the dentin was promoted
"MMP3: 0.1 mg/mL MMP3, dentin treatment group (v)",cell adhesion to treated dentin,[1],inferior in cell adhesiveness
chymotrypsin,cell adhesion to treated dentin,[1],inferior in cell adhesiveness
B1,increase of the amount of regenerated dental pulp,"[2]; 50 μg/ml (0.05%) for 10 minutes prior to root canal filler, day 14, vs no pretreatment",2.5 times
same,amount of regenerated dental pulp,"[2]; 50 μg/ml (0.05%) for 30 minutes, compared with same concentration for 10 minutes, day 14",doubled
same,dental pulp regeneration,[2]; [4],almost no dental pulp was regenerated
same,inflammation around the periapical region,[2]; [4],no inflammation occurred
same,amount of regenerated dental pulp,"[2]; 500 μg/ml (0.5%) for 10 minutes, compared with 50 μg/ml (0.05%), day 14",did not cause any significant difference
same,abnormality at the periapical region,"[2]; after trypsin pretreatment and transplantation, day 14",Abnormality such as inflammation was not observed
same,"inflammatory cells, necrotic layer in dental pulp formed after treatment",[2]; day 14,"did not show any increase of inflammatory cells, formation of necrotic layer"
same,angiogenesis in the regenerated dental pulp (BS-1 lectin),"[2]; day 14, each pretreated sample",angiogenesis was observed
same,"calcification in the periapical tissue (Masson Trichrome stain, vimentin immunostaining)","[2]; dog 5 years of age, 0.05% trypsin 10 minutes, day 14",decomposed the calcification in the periapical tissue
same,cell adhesion to treated dentin,[1],cell adhesion was facilitated
same,induction of the dental pulp stem cells into the dental pulp and dentin,[1],more promoted
B2,Neurite Outgrowth Length,[3],10540.1 ± 4800.7 μm

# From US10668134B2, “Dental pretreatment material and dental tissue regeneration kit” (National Center for Geriatrics and Gerontology, priority 2016, dated 2020)
